Laboratory results published in article PMC11039470, “Catalytic specificity and crystal structure of cystathionine γ-lyase from Pseudomonas aeruginosa” (Scientific Reports, 2024).
Each block holds one molecule with its values, some of them ahead of it.

Key:
[1] = target: T1, cystathionine γ-lyase (PaCGL) (Pseudomonas aeruginosa, UniProt Q9I6A0); test: intrinsic fluorescence titration of apo-PaCGL; […] Å crystal structure; format: binding
T1 construct: gene PA0400; 394-residue PaCGL (PAO1_PA0400), 6x-His tagged; homotetramer

[2] = target: PaCGL F114A variant, N-terminal 6x-His tag (Pseudomonas aeruginosa); test: SEC; gel filtration on Sephacryl S-200 16/60 HR in 20 mM sodium phosphate pH 8.0, 150 mM NaCl, 0.1 mM DTT; calibration curve; self-association (tetramer)
[3] = target: PaCGL F114N variant ("humanized"), N-terminal 6x-His tag (Pseudomonas aeruginosa); test: as above
[4] = system: N[C@@H](CCSC[C@H](N)C(=O)O)C(=O)O; test: DTNB assay steady-state kinetics (Km); format: biochemical, Pseudomonas aeruginosa; settings: PLP PLP-containing active site
N[C@@H](CS)C(=O)O = test: purified protein; format: biochemical, Pseudomonas aeruginosa; settings: PLP PLP-containing active site
[5] = target: cystathionine γ-lyase from Pseudomonas aeruginosa (PaCGL), wild type, N-terminal 6x-His tag (Pseudomonas aeruginosa); test: SEC; gel filtration on Sephacryl S-200 16/60 HR in 20 mM sodium phosphate pH 8.0, 150 mM NaCl, 0.1 mM DTT; calibration curve; self-association (tetramer)
[6] = substrate: N[C@@H](CCSC[C@H](N)C(=O)O)C(=O)O; test: DTNB assay steady-state kinetics (Km); UV-Vis and CD spectra; LC-MS/MS; format: biochemical, Pseudomonas aeruginosa; settings: PLP PLP-containing active site (chamber-1)
[7] = substrate: N[C@@H](CCS)C(=O)O; test: lead acetate H2S assay kinetics (Km); LC-MS/MS; format: biochemical, Pseudomonas aeruginosa; settings: PLP PLP-containing active site
purified protein = substrate: N[C@@H](CS)C(=O)O; test: purified protein; format: biochemical, Pseudomonas aeruginosa; settings: PLP amino acid site […] of the active site (second L-Cys at site […])

Molecule: Cc1ncc(COP(=O)(O)O)c(C=O)c1O [PLP]
- Kd [1]: 150 ± 10 nM

Molecule: PaCGL F114A variant, N-terminal 6x-His tag (enzyme)
- stoichiometry N [2]: 4

Molecule: PaCGL F114N variant ("humanized"), N-terminal 6x-His tag (enzyme)
- stoichiometry N [3]: 4

Molecule: cystathionine γ-lyase (PaCGL) (Pseudomonas aeruginosa PAO1; F114A)
- Km [4]: 600 ± 100 µM
- kcat [4]: 3.2 ± 0.2 s⁻¹
- kcat/Km [4]: 5300 ± 1200 M⁻¹ s⁻¹
- Km (N[C@@H](CS)C(=O)O): 490 ± 10 µM
- kcat (N[C@@H](CS)C(=O)O): 0.13 ± 0.01 s⁻¹
- kcat/Km (N[C@@H](CS)C(=O)O): 270 ± 30 M⁻¹ s⁻¹

Molecule: cystathionine γ-lyase (PaCGL) (Pseudomonas aeruginosa PAO1; F114N)
- Km [4]: 500 ± 100 µM
- kcat [4]: 3.2 ± 0.1 s⁻¹
- kcat/Km [4]: 6400 ± 1500 M⁻¹ s⁻¹
- Km (N[C@@H](CS)C(=O)O): 1600 ± 300 µM
- kcat (N[C@@H](CS)C(=O)O): 0.38 ± 0.06 s⁻¹
- kcat/Km (N[C@@H](CS)C(=O)O): 240 ± 80 M⁻¹ s⁻¹

- stoichiometry N [5]: 4
Molecule: cystathionine γ-lyase from Pseudomonas aeruginosa (PaCGL), wild type, N-terminal 6x-His tag (enzyme)

B1: cystathionine γ-lyase (PaCGL) (Pseudomonas aeruginosa PAO1) (protein)
chain: MSQHDQHPDAPAQAFATRVIHAGQAPDPSTGAIMPPIYANSTYIQESPGVHKGLDYGRSHNPTRWALERCVADLEGGTQAFAFASGLAAISSVLELLDAGSHIVSGNDLYGGTFRLFERVRRRSAGHRFSFVDPTDLQAFEAALTPETRMVWVETPSNPLLRLTDLRAIAQLCRARGIISVADNTFASPYIQRPLELGFDVVVHSTTKYLNGHSDVIGGIAIVGDNPDLRERLGFLQNSVGAISGPFDAFLTLRGVKTLALRMERHCSNALALAQWLERQPQVARVYYPGLASHPQHELAKRQMRGFGGMISLDLRCDLAGARRFLENVRIFSLAESLGGVESLIEHPAIMTHASIPAETRADLGIGDSLIRLSVGVEALEDLQADLAQALAKI
notes: PaCGL with N-terminal 6x-His tag
- Km [6]: 300 ± 40 µM
- kcat [6]: 5.2 ± 0.2 s⁻¹
- kcat/Km [6]: 17000 ± 3000 M⁻¹ s⁻¹
- Km [7]: 1700 ± 300 µM
- kcat [7]: 0.42 ± 0.04 s⁻¹
- kcat/Km [7]: 250 ± 70 M⁻¹ s⁻¹
- Km (purified protein): 430 ± 30 µM
